# According to the supplement of paper PMC7877785:
# ± gives the uncertainty stated by the source.
# Experiment: self-splicing fitness, log relative to wild type (ln ratio); higher = more splicing; Tetrahymena group I intron in knt gene, E. coli kanamycin selection, DiMSum; sequences stand for … in CUCUCU…GGAGGGAAAAGUUAUCAGGCAUGCACCUGGUAGCUAGUCUUUAAACCAAUAGAUUGCAUCGGUUUAAAAGGCAAGACCGUCAAAUUGCGGGAAAGGGGUCAACAGCCGUUCAGUACCAAGUCUCAGGGGAAACUUUGAGAUGGCCUUGCAAAGGGUAUGGUAAUAAGCUGACGGACAUGGUCCUAACCACGCAGCCAAGUCCUAAGUCAACAGAUCUUCUGUUGAUAUGGAUGCAGUUCACAGACUAAAUGUCGGUCGGGGAAGAUGUAUUCUUCUCAUAAGAUAUAGUCGGACCUCUCCUUAAUGGGAGCUAGCGGAUGAAGUGAUGCAACACUGGAGCCGCUGGGAACUAAUUUGUAUGCGAAAGUAUAUUGAUUAGUUUUGGAGUACUCGUGGUCG
# Summary of the method: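 Colonies from six replicate transformations of E. coli BL21(DE3) were pooled and amplicon-sequenced on an Illumina HiSeq 2500. The library placed an intron with all eight P1ex-region nucleotides randomised inside the knt kanamycin-resistance gene on pET-22b(+), and cells grew overnight at 37°C or 30°C on LB agar with or without 25 μg/mL kanamycin (plus 100 μg/mL carbenicillin, 50 μM IPTG, 0.2% rhamnose). Fitness is the DiMSum error-weighted combination of wild-type-normalised replicate fold changes, kanamycin versus none.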
Sequence,self-splicing fitness (ln) (30 °C),self-splicing fitness (ln) (37 °C)
CUCCAGCAAUAUUACGACGU,-3.83 ± 0.21,-2.01 ± 0.21
CUCCAGCAAUAUUACGAUAU,-2.46 ± 0.19,-2.95 ± 0.47
CUCCAGCAAUAUUACGAUGU,-3.28 ± 0.17,-2.9 ± 0.21
CUCCAGCAAUAUUACGCAAA,-3.21 ± 0.21,-2.68 ± 0.26
CUCCAGCAAUAUUACGCAUA,–,-2.21 ± 0.29
CUCCAGCAAUAUUACGCAUG,-2.12 ± 0.08,-1.06 ± 0.074
CUCCAGCAAUAUUACGCCGA,-2.27 ± 0.42,–
CUCCAGCAAUAUUACGGAAA,-2.25 ± 0.13,-1.55 ± 0.12
CUCCAGCAAUAUUACGGAAC,-4.55 ± 0.46,-2.33 ± 0.21
CUCCAGCAAUAUUACGGAUG,-2.46 ± 0.13,-1.38 ± 0.14
CUCCAGCAAUAUUACGGCAG,-4.58 ± 0.21,-1.75 ± 0.15
CUCCAGCAAUAUUACGGCGC,-3.37 ± 0.18,-2.81 ± 0.27
CUCCAGCAAUAUUACGGGAA,-1.92 ± 0.086,-0.479 ± 0.093
CUCCAGCAAUAUUACGGGCA,–,-2.52 ± 0.27
CUCCAGCAAUAUUACGGUAC,-2.28 ± 0.12,-1.86 ± 0.16
CUCCAGCAAUAUUACGGUGU,-4.11 ± 0.15,-2.28 ± 0.13
CUCCAGCAAUAUUACGUGAG,-3.61 ± 0.15,-2.62 ± 0.18
CUCCAGCAAUAUUACGUGGU,-3.42 ± 0.12,-3.19 ± 0.15
CUCGAGCAAUAUUACGAAAC,-3.52 ± 0.33,-1.99 ± 0.33
CUCGAGCAAUAUUACGAAAG,-2.85 ± 0.14,-1.58 ± 0.15
CUCGAGCAAUAUUACGACAG,-1.76 ± 0.15,-1.42 ± 0.21
CUCGAGCAAUAUUACGACUC,-4.16 ± 0.22,-2.61 ± 0.24
CUCGAGCAAUAUUACGAGGG,-3.45 ± 0.28,-1.83 ± 0.35

Sequence,self-splicing fitness (ln) (30 °C),self-splicing fitness (ln) (37 °C)
CUCGAGCAAUAUUACGAUAC,–,-2.64 ± 0.36
CUCGAGCAAUAUUACGAUGC,-4.39 ± 0.46,-3 ± 0.47
CUCGAGCAAUAUUACGAUUC,-3.29 ± 0.47,–
CUCGAGCAAUAUUACGCAAU,-3.57 ± 0.2,–
CUCGAGCAAUAUUACGCAUG,-3.27 ± 0.2,-3.58 ± 0.42
CUCGAGCAAUAUUACGCCAC,-2.89 ± 0.43,-1.24 ± 0.43
CUCGAGCAAUAUUACGCCCG,–,-2.74 ± 0.43
CUCGAGCAAUAUUACGCGAC,–,-0.0316 ± 0.34
CUCGAGCAAUAUUACGGAGG,-2.97 ± 0.1,-1.46 ± 0.097
CUCGAGCAAUAUUACGGAUG,-2.21 ± 0.13,-1.46 ± 0.17
CUCGAGCAAUAUUACGGGCG,-2.65 ± 0.17,-2.1 ± 0.25
CUCGAGCAAUAUUACGGGGG,-4.18 ± 0.42,–
CUCGAGCAAUAUUACGGUCC,-3 ± 0.36,-2.33 ± 0.45
CUCGAGCAAUAUUACGGUGC,-2.95 ± 0.25,-2.88 ± 0.31
CUCGAGCAAUAUUACGGUGG,-2.25 ± 0.13,-1.75 ± 0.17
CUCGAGCAAUAUUACGGUGU,-2.83 ± 0.33,-2.7 ± 0.31
CUCGAGCAAUAUUACGUCCA,-1.95 ± 0.25,-3.15 ± 0.47
CUCGAGCAAUAUUACGUUGC,-3.84 ± 0.42,-3.45 ± 0.37
CUCGAGCAAUAUUACGUUUU,-3.2 ± 0.13,-2.1 ± 0.17
CUCUAGCAAUAUUACGACGU,–,-3.03 ± 0.22
CUCUAGCAAUAUUACGACUG,-1.68 ± 0.15,-0.621 ± 0.18
CUCUAGCAAUAUUACGAUCC,-2.43 ± 0.31,-2.11 ± 0.3
